T1: MAGE-A3 peptide on HLA-A*01:01 (human)
T1 peptide: EVDPIGHLY

T2: titin peptide on HLA-A*01:01 (human)
T2 peptide: ESDPIVAQY


Key:
[1] = biological target: T1, MAGE-A3 peptide on HLA-A*01:01; test: multimer staining
Excerpt: CD8 T cells were isolated from PBMCs of a healthy donor and transduced with three different MAGE-A3-reactive TCRs. Transduced CD8⁺ T cells were enriched by FACS using the constant beta 1 region as a marker for transduction. After expansion of these cells, they were stained either with a MAGE-A3EVD-MHC-multimer (right panel) or antibodies against CD8 and Cß1 (left panel) and analyzed by flow cytometry. Populations were gated on single live cells.
Sequences of TCR-α and TCR-β chains of MAGE-A3-reactive T-cell clones were identified by Next Generation Sequencing and after exchanging the constant TCR regions by their minimal-murinized counterparts cloned into the retroviral vector pES.12-6. For the β chain the Cß1 sequence was used. PBMCs of three healthy donors were isolated by ficoll gradient centrifugation. CD8-positive Cß1-negative T-cells were enriched by negative magnetic selection (Miltenyi) and stimulated in non-tissue culture 24-well plates with plate bound antibodies specific for CD3 and CD28. Amphotropic retroviral particles were produced by transfection of HEK293T cells with the respective TCR encoding retroviral plasmid and two expression plasmids. Three days after stimulation, CD8-positive Cß1-negative T cells were transduced and on day ten enriched for transduced CD8⁺ cells by MACS-separation using the Cβ1 constant beta region as a marker for transduction and then expanded by REP. Transgenic T cells were stained either with an HLA-A1-restricted MAGE-A3EVD-MHC-multimer (MAGE-A3, […]; immuneAware) or antibodies against CD8 and the constant β1 region.

[2] = biological target: T2, titin peptide on HLA-A*01:01; test: cytokine release
[3] = biological target: HLA-A1-restricted MAGE-A3EVD-MHC-multimer (MAGE-A3, …; immuneAware) (human); test: flow cytometry, MHC-multimer staining of TCR-transduced CD8+ T cells

binding result [1] | binding result [2] | percent of T cells binding the MAGE-A3EVD-MHC-multimer [3] | Binder
recognises | no recognition |  | TCR3 (TCR, V domains shown) Valpha: AQKVTQAQTEISVVEKEDVTLDCVYETRDTTYYLFWYKQPPSGELVFLIRRNSFDEQNEISGRYSWNFQKSTSSFNFTITASQVVDSAVYFCALSEALGYSSASKIIFGSGTRLSIRP Vbeta: GAGVSQSPSNKVTEKGKDVELRCDPISGHTALYWYRQSLGQGLEFLIYFQGNSAPDKSGLPSDRFSAERTGGSVSTLTIQRTQQEDSAVYLCASSDPMSGAQETQYFGPGTRLLVL
 |  | 20% | TCR_2 (MAGE-A3-reactive TCR, transgenically expressed on CD8+ T cells) (TCR, V domains shown) V domain 1: KQEVTQIPAALSVPEGENLVLNCSFTDSAIYNLQWFRQDPGKGLTSLLLIQSSQREQTSGRLNASLDKSSGRSTLYIAASQPGDSATYLCAVRWETSGSRLTFGEGTQLTVNP V domain 2: DSGVTQTPKHLITATGQRVTLRCSPRSGDLSVYWYQQSLDQGLQFLIQYYNGEERAKGNILERFSAQQFPDLHSELNLSSLELGDSALYFCASSVGGGYEQYFGPGTRLTVTE
recognises | no recognition |  | TCR2 (TCR, V domains shown) Valpha: KQEVTQIPAALSVPEGENLVLNCSFTDSAIYNLQWFRQDPGKGLTSLLLIQSSQREQTSGRLNASLDKSSGRSTLYIAASQPGDSATYLCAVRWETSGSRLTFGEGTQLTVNP Vbeta: DSGVTQTPKHLITATGQRVTLRCSPRSGDLSVYWYQQSLDQGLQFLIQYYNGEERAKGNILERFSAQQFPDLHSELNLSSLELGDSALYFCASSVGGGYEQYFGPGTRLTVT
recognises | no recognition |  | TCR1 (TCR, V domains shown) Valpha: KQEVTQIPAALSVPEGENLVLNCSFTDSAIYNLQWFRQDPGKGLTSLLLIQSSQREQTSGRLNASLDKSSGRSTLYIAASQPGDSATYLCAVIEYGNKLVFGAGTILRVKS Vbeta: DAMVIQNPRYQVTQFGKPVTLSCSQTLNHNVMYWYQQKSSQAPKLLFHYYDKDFNNEADTPDNFQSRRPNTSFCFLDIRSPGLGDAAMYLCATSWDRGYEQFFGPGTRLTVL
